Measured values taken from patent US20230050440A1 (Seagen, published 2023).
Where two headings read alike, the source gives them in different places.

T1: murine FcγRIV expressed on CHO cells (mouse, UniProt A0A0B4J1G0 21-249)
T1 construct: also called mCD16 (the murine form of FcγRIVa)
T1 sequence: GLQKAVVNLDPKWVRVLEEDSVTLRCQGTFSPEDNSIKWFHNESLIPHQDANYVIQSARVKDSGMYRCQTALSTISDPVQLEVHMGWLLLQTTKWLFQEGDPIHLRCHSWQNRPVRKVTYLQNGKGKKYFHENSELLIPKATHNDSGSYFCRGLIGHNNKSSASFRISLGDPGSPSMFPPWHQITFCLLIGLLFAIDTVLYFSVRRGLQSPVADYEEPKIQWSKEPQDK

T2: monomeric human TIGIT (Sino Biological 10917-H08H) (human, UniProt Q495A1 22-138, biotinylated in the MSD-SET assay)
T2 construct: Bought protein; also called Human TIGIT monomer; Human TIGIT-His; not shown: His tag
T2 sequence: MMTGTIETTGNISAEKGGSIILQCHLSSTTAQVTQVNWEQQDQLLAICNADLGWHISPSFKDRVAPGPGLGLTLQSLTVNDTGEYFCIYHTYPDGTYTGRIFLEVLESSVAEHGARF

T3: recombinant dimeric human TIGIT-Fc (Acro Biosystems TIT-H5254) (human, UniProt Q495A1 22-141)
T3 construct: Bought protein; also called hTIGIT-Fc; not shown: Fc part of the bought fusion protein
T3 sequence: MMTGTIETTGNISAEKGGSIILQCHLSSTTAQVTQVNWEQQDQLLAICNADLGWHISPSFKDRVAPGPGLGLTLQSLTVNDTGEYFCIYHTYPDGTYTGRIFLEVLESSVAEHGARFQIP

T4: human TIGIT expressed on cells (human, UniProt Q495A1 22-244)
T4 construct: HEK 293 cells stably expressing human TIGIT, primary human T cells or Jurkat effector cells; the cell is named under assay; also called Human TIGIT HEK
T4 sequence: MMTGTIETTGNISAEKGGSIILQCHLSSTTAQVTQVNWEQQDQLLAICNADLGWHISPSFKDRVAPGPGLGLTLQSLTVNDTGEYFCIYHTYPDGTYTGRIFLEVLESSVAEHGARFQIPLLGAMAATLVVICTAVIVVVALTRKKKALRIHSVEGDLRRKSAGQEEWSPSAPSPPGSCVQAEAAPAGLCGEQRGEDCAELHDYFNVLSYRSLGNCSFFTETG


Columns and labels:
[1] = biological target: T1, murine FcγRIV expressed on CHO cells; assay: flow cytometry on CHO cells expressing mCD16 (murine FcγRIV), anti-mouse IgG FITC
Protocol: To assess the extent of altered FcγRIV binding, antibody affinity to FcγRIV expressed on CHO cells was determined by FACS using anti-mouse IgG FITC.

[2] = biological target: T2, monomeric human TIGIT (Sino Biological …); assay: BLI (ForteBio Octet RED384), IgG on AHQ sensor, 100 nM antigen, 1:1 model
Protocol: (§1) Briefly, ForteBio affinity measurements were performed by loading IgGs on-line onto AHQ sensors. Sensors were equilibrated off-line in assay buffer for 30 minutes and then monitored on-line for 60 seconds for baseline establishment. Sensors with loaded IgGs were exposed to 100 nM antigen (dimeric Fc-fusion antigen or monomeric antigen) for 3 minutes, and afterwards were transferred to assay buffer for 3 minutes for off-rate measurement. All binding and dissociation kinetics were analyzed using the 1:1 binding model.

[3] = biological target: T3, recombinant dimeric human TIGIT-Fc …; assay: as above
Protocol: as §1

[4] = biological target: T4, human TIGIT expressed on cells; assay: flow cytometry titration, HEK 293 cells expressing human TIGIT
Protocol: (§2) HEK 293 cells were engineered to stably express high levels of human, mouse or cynomolgus monkey TIGIT by lentiviral transduction. […] Samples were analyzed on a CytoFLEX flow cytometer. Median fluorescence intensity of the FSC/SSC gated population was determined for each antibody concentration. NonLinear regression of Log(X) transformed data was used to generate EC50 values in GraphPad Prism 6.

[5] = biological target: T5, cynomolgus monkey TIGIT expressed on cells (cynomolgus monkey); assay: flow cytometry on HEK 293 cells expressing the target, MFI over parental HEK 293;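 note: bound antibody detected with PE-labelled anti-human IgG, 15 min on ice. FOB equals median fluorescence on TIGIT-positive cells divided by that on target-negative cells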
T5 construct: HEK 293 cells stably expressing cynomolgus monkey TIGIT or cynomolgus T cells; also called Cyno TIGIT HEK
Protocol: (§3) HEK 293 cells were engineered to stably express high levels of human, mouse or cynomolgus monkey TIGIT by lentiviral transduction. […] Cells were then washed twice with wash buffer and incubated with anti-human IgG conjugated to PE for 15 minutes on ice. Cells were then washed twice with wash buffer and analyzed by flow cytometry on a FACS Canto II instrument (BD Biosciences). Fold over background (FOB) was calculated as the median fluorescence intensity (MFI) of the anti-TIGIT clone bound to target-positive cells divided by the MFI of the anti-TIGIT clone bound to target-negative cells.

[6] = biological target: T4, human TIGIT expressed on cells; assay: as above
Protocol: as §3

cyno TIGIT-Fc = biological target: T6, cyno TIGIT-Fc (cynomolgus monkey); assay: BLI (ForteBio), IgG on sensor, avid
T6 construct: not shown: Fc part

[7] = biological target: T5, cynomolgus monkey TIGIT expressed on …; assay: flow cytometry titration, HEK 293 cells expressing cynomolgus TIGIT
Protocol: as §2

[8] = biological target: T2, monomeric human TIGIT (Sino Biological …); assay: BLI (ForteBio), IgG on sensor, monovalent
Protocol: as §1
The optimized antibodies were also tested for ligand blocking in a CD155 ligand competition assay, and for binding to human TIGIT HEK, cyno TIGIT HEK, mouse TIGIT HEK, and parental HEK cell lines, as described above.

[9] = biological target: T4, human TIGIT expressed on cells; assay: flow cytometry competition with human CD112-Fc on 293-hTIGIT cells
[10] = biological target: T5, cynomolgus monkey TIGIT expressed on …; assay: flow cytometry titration, HEK 293 cells expressing cynomolgus TIGIT; remark: listed apart in the source
[11] = biological target: T4, human TIGIT expressed on cells; assay: flow cytometry competition with hCD112-Fc-AlexaFluor647 on 293-hTIGIT cells; the axis 'Percent Blockade' falls as ligand signal is lost
Protocol: (§4) Samples were analyzed on a CytoFLEX flow cytometer. Median fluorescence intensity of the FSC/SSC gated population was determined for each antibody concentration. Percent blockade was calculated relative to the MFI of the no antibody control. NonLinear regression of Log(X) transformed data was performed in GraphPad Prism 6.

[12] = biological target: T4, human TIGIT expressed on cells; assay: flow cytometry competition with hCD155-Fc-AlexaFluor647 on 293-hTIGIT cells; the axis 'Percent Blockade' falls as ligand signal is lost
Protocol: as §4

[13] = biological target: T4, human TIGIT expressed on cells; assay: flow cytometry titration, HEK 293 cells expressing human TIGIT; remark: listed apart in the source
[14] = biological target: T4, human TIGIT expressed on cells; assay: flow cytometry competition with human CD155-Fc on 293-hTIGIT cells

T5 sequence (chain, as listed by the source limits assumed): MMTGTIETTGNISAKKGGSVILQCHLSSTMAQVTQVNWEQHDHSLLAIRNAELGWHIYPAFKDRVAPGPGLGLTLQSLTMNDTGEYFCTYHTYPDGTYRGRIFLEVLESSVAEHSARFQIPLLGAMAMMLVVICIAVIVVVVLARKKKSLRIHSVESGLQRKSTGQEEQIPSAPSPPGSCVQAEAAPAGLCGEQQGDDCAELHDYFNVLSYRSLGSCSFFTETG
T6 sequence (chain, as listed by the source limits assumed): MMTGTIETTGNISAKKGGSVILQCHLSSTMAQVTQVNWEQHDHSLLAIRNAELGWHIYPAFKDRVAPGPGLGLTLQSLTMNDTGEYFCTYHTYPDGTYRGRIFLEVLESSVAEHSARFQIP

Binder | Kd [1] | Kd [2] | Kd [3] | EC50 [4] | FOB (Fold Over Background) [5] | FOB (Fold Over Background) [6] | Kd (cyno TIGIT-Fc) | EC50 [7] | Kd [8] | IC50 (read off the curve) [9] | EC50 [10] | IC50 (read off the curve) [11] | IC50 (read off the curve) [12] | EC50 [13] | IC50 (read off the curve) [14]
anti-TIGIT c13 mIgG2a LALA-PG (antibody, also called LALA TIGIT) heavy chain: QVQLVQSGAEVKKPGSSVKVSCKASGGTFSSYAISWVRQAPGQGLEWMGSIIPIFGTANYAQKFQGRVTITADESTSTAYMELSSLRSEDTAVYYCARGPSEVGAILGYVWFDPWGQGTLVTVSSAKTTAPSVYPLAPVCGDTTGSSVTLGCLVKGYFPEPVTLTWNSGSLSSGVHTFPAVLQSDLYTLSSSVTVTSSTWPSQSITCNVAHPASSTKVDKKIEPRGPTIKPCPPCKCPAPNAAGGPSVFIFPPKIKDVLMISLSPIVTCVVVDVSEDDPDVQISWFVNNVEVHTAQTQTHREDYNSTLRVVSALPIQHQDWMSGKEFKCKVNNKDLGAPIERTISKPKGSVRAPQVYVLPPPEEEMTKKQVTLTCMVTDFMPEDIYVEWTNNGKTELNYKNTEPVLDSDGSYFMYSKLRVEKKNWVERNSYSCSVVHEGLHNHHTTKSFSRTPGK light chain: not shown | 3330 nM |  |  |  |  |  |  |  |  |  |  |  |  |  | 
Clone 2 (antibody, V domains shown, Fully human IgG produced in yeast; also called anti-TIGIT antibody clone 2) VH: EVQLVESGGGLVQPGGSLRLSCAASGFTFSDHYMDWVRQAPGKGLEWVGRTRNKANSYTTEYAASVKGRFTISRDDSKNSLYLQMNSLKTEDTAVYYCARGQYYYGSSSRGYYYMDVWGQGTTVTVSS VL: EIVLTQSPGTLSLSPGERATLSCRASQSVSSSYLAWYQQKPGQAPRLLIYGASSRATGIPDRFSGSGSGTDFTLTISRLEPEDFAVYYCQQAVPSPLTFGGGTKVEIK |  | 10.1 nM | 0.956 nM | 0.15 µg/mL | 162 fold | 158 fold | 1.34 nM | 0.32 µg/mL | 8.18 nM |  |  |  |  |  | 
Clone 3 (antibody, V domains shown, Fully human IgG produced in yeast) VH: EVQLVESGGGLVQPGGSLRLSCAASGFTFSDHYMDWVRQAPGKGLEWVGRTRNKANSYTTEYAASVKGRFTISRDDSKNSLYLQMNSLKTEDTAVYYCARGQYYYGSSSRGYYYMDVWGQGTTVTVSS VL: EIVLTQSPGTLSLSPGERATLSCRASQSVRSSYLAWYQQKPGQAPRLLIYGASSRATGIPDRFSGSGSGTDFTLTISRLEPEDFAVYYCQQVGPPLTFGGGTKVEIK |  | 73.6 nM | 2.77 nM |  |  |  |  |  |  |  |  |  |  |  | 
anti-TIGIT clone 13 mIgG1 (antibody, also called c13 mIgG1; 13-1) heavy: QVQLVQSGAEVKKPGSSVKVSCKASGGTFSSYAISWVRQAPGQGLEWMGSIIPIFGTANYAQKFQGRVTITADESTSTAYMELSSLRSEDTAVYYCARGPSEVGAILGYVWFDPWGQGTLVTVSSAKTTPPSVYPLAPGSAAQTNSMVTLGCLVKGYFPEPVTVTWNSGSLSSGVHTFPAVLESDLYTLSSSVTVPSSPRPSETVTCNVAHPASSTKVDKKIVPRDCGCKPCICTVPEVSSVFIFPPKPKDVLTITLTPKVTCVVVDISKDDPEVQFSWFVDDVEVHTAQTQPREEQFNSTFRSVSELPIMHQDWLNGKEFKCRVNSAAFPAPIEKTISKTKGRPKAPQVYTIPPPKEQMAKDKVSLTCMITDFFPEDITVEWQWNGQPAENYKNTQPIMNTNGSYFVYSKLNVQKSNWEAGNTFTCSVLHEGLHNHHTEKSLSHSPGK light: not shown |  |  |  |  |  |  |  |  |  | ~0.04 µg/mL | 0.07 µg/mL |  |  | 0.05 µg/mL | ~0.1 µg/mL

Second part, the binder after the results:

Kd [1] | Kd [2] | Kd [3] | EC50 [4] | FOB (Fold Over Background) [5] | FOB (Fold Over Background) [6] | Kd (cyno TIGIT-Fc) | EC50 [7] | Kd [8] | IC50 (read off the curve) [9] | EC50 [10] | IC50 (read off the curve) [11] | IC50 (read off the curve) [12] | EC50 [13] | IC50 (read off the curve) [14] | Binder
 | 2.06 nM | 0.69 nM | 0.07 µg/mL | 27 fold | 192 fold | 4.67 nM | 0.1 µg/mL | 2.52 nM |  |  |  |  |  |  | Clone 16 (antibody, V domains shown, Fully human IgG produced in yeast) VH: QVQLVQSGAEVKKPGSSVKVSCKASGGTFSSYAISWVRQAPGQGLEWMGGIIPIFGTASYAQKFQGRVTITADESTSTAYMELSSLRSEDTAVYYCARQSTWHKLYGTDVWGQGTTVTVSS VL: DIQMTQSPSSVSASVGDRVTITCRASQGISSWLAWYQQKPGKAPKLLIYAASSLQSGVPSRFSGSGSGTDFTLTISSLQPEDFATYYCQQGDSLPPTFGGGTKVEIK
 | 0.618 nM | 0.62 nM | 0.14 µg/mL | 247 fold | 205 fold | 1.5 nM | 0.19 µg/mL | 1.27 nM |  |  |  |  |  |  | Clone 25 (antibody, V domains shown, Fully human IgG produced in yeast; also called anti-TIGIT clone 25) VH: QVQLVQSGAEVKKPGASVKVSCKASGYTFTSYAISWVRQAPGQGLEWMGWISAYNGNTNYAQKLQGRVTMTTDTSTSTAYMELRSLRSDDTAVYYCARDLSSFWSGDVLGAFDIWGQGTMVTVSS VL: DIQMTQSPSSLSASVGDRVTITCRASQSISSYLNWYQQKPGKAPKLLIYAASSLQSGVPSRFSGSGSGTDFTLTISSLQPEDFATYYCQQSVPPRTFGGGTKVEIK
 | 2.32 nM | 0.558 nM |  |  |  |  |  |  |  |  |  |  |  |  | Clone 27 (antibody, V domains shown, Fully human IgG produced in yeast) VH: QVQLVQSGAEVKKPGASVKVSCKASGYTFTSYAISWVRQAPGQGLEWMGWISAYNGNTNYAQKLQGRVTMTTDTSTSTAYMELRSLRSDDTAVYYCARDLSSFWSGDVLGAFDIWGQGTMVTVSS VL: EIVMTQSPATLSVSPGERATLSCRASQSVSSNLAWYQQKPGQAPRLLIYGASTRATGIPARFSGSGSGTEFTLTISSLQSEDFAVYYCQQHANHITFGGGTKVEIK
 | 2.56 nM | 0.543 nM | 0.07 µg/mL | 224 fold | 212 fold | 1.04 nM | 0.1 µg/mL | 2.63 nM | ~0.1 µg/mL | 0.13 µg/mL | ~0.1 µg/mL | ~0.1 µg/mL | 0.09 µg/mL | ~0.1 µg/mL | Clone 13 (antibody, IgG1, V domains shown, also called anti-TIGIT clone 13; c13 hIgG1) VH: QVQLVQSGAEVKKPGSSVKVSCKASGGTFSSYAISWVRQAPGQGLEWMGSIIPIFGTANYAQKFQGRVTITADESTSTAYMELSSLRSEDTAVYYCARGPSEVGAILGYVWFDPWGQGTLVTVSS VL: not shown
 | 3.49 nM | 0.689 nM | 0.11 µg/mL |  |  |  | 11.4 µg/mL |  |  |  |  |  |  |  | Clone 54 (antibody, V domains shown, Fully human IgG produced in yeast) VH: QVQLVQSGAEVKKPGASVKVSCKASGYTFTSYYMHWVRQAPGQGLEWMGIINPSGGSTSYAQKFQGRVTMTRDTSTSTVYMELSSLRSEDTAVYYCARASDSYGVGLYYGMDVWGQGTTVTVSS VL: EIVLTQSPGTLSLSPGERATLSCRASQSVRSSYLAWYQQKPGQAPRLLIYGASSRATGIPDRFSGSGSGTDFTLTISRLEPEDFAVYYCQQYYVSPLTFGGGTKVEIK
